Results taken from US20160257732A1 (published 2016).
“And” between values parts separate entries of the source, which are not always exact repeats. Equal values may be shown once.

What was measured:
Assay in all cases: cell-based or functional assay
[1] = target: HA of swine-origin A/Minnesota/11/2010 H3N2 virus (influenza A virus)
[2] = target: HA of ca A/New Caledonia/20/99 (H1N1) (influenza A virus)
[3] = target: HA of ca A/Beijing/262/95 (H1N1) (influenza A virus)
[4] = target: HA of ca A/Hong Kong/213/03 (H5N1) (influenza A virus)
[5] = target: HA of ca A/Brit. Columbia/CN-6/04 (H7N3-LP) (influenza A virus)
HA of virus H1-BS10 = target: HA of virus H1-BS10
[6] = target: HA of ca A/chicken/Hong Kong/G9/97 (H9N2) (influenza A virus)
[7] = target: HA of ca A/Perth/16/09 (H3N2) (influenza A virus)
[8] = target: HA of A/Wisconsin/67/05 (H3N2) (influenza A virus)
[9] = target: HA of A/Victoria/3/75 (H3N2) (influenza A virus)
[10] = target: HA of A/Fort Monmouth/1/47 (H1N1) (influenza A virus)
[11] = target: HA of ca A/Panama/2007/99 (H3N2) (influenza A virus)
[12] = target: HA of ca A/Netherlands/219/03 (H7N7) (influenza A virus)
[13] = target: HA of ca A/Vietnam/1203/04 (H5N1) (influenza A virus)
[14] = target: HA of ca A/Japan/57 (H2N2) (influenza A virus)
[15] = target: HA of ca A/swine/Missouri/06 (H2N3) (influenza A virus)
[16] = target: HA of ca A/Sydney/5/97 (H3N2) (influenza A virus)
[17] = target: HA of A/Hong Kong/8/68 (H3N2) (influenza A virus)
[18] = target: HA of A/Kawasaki/9/86 (H1N1) (influenza A virus)
[19] = target: HA of A/New Jersey/8/76 (H1N1) (influenza A virus)
[20] = target: HA of ca A/teal/Hong Kong/W312/97 (H6N1) (influenza A virus)
[21] = target: HA of ca A/mallard/Alberta/89/85 (H6N2) (influenza A virus)
[22] = target: HA of ca A/Texas/36/91 (H1N1) (influenza A virus)
[23] = target: HA of A/Victoria/361/11 (H3N2) (influenza A virus)

Binder	Neutralizing activity IC50, swine-origin A/Minnesota/11/2010 [1]	Neutralization IC50, H1-Ncal99 [2] [µg/mL]	Neutralization IC50, H1-BJ95 [3] [µg/mL]	Neutralization IC50, H5-HK03 [4] [µg/mL]	Neutralization IC50, H7-BC04 [5] [µg/mL]	Neutralization IC50, H1-BS10 (HA of virus H1-BS10) [µg/mL]	Neutralization IC50, H9-HK97 [6] [µg/mL]	Neutralization IC50, H3-Perth09 [7] [µg/mL]	Neutralization IC50, H3-WI05 [8] [µg/mL]	Neutralization IC50, H3-Vic75 [9] [µg/mL]	Neutralization IC50, H1-FM47 [10] [µg/mL]	Neutralization IC50, H3-Pa99 [11] [µg/mL]	Neutralization IC50, H7-NLD03 [12] [µg/mL]	Neutralization IC50, H5-VM04 [13] [µg/mL]	Neutralization IC50, H2-JP57 [14] [µg/mL]	Neutralization IC50, H2-MO06 [15] [µg/mL]	Neutralization IC50, H3-Syd97 [16] [µg/mL]	Neutralization IC50, H3-HK68 [17] [µg/mL]	Neutralization IC50, H1-Kaw86 [18] [µg/mL]	Neutralization IC50, H1-NJ76 [19] [µg/mL]	also measured
Antibody 11 (antibody, V domains shown) VH: QVQLQQSGPGLVKPSQTLSLTCAISGDSVSSYNAVWNWIRQSPSRGLEWLGRTYYRSGWYNDYAESVKSRITINPDTSKNQFSLQLNSVTPEDTAVYYCARSGHITVFGVNVDAFDMWGQGTMVTVSS VL: DIQMTQSPSSLSASVGDRVTITCRTSQSLSSYTHWYQQKPGKAPKLLIYAASSRLSGVPSRFSGSGSGTDFTLTISSLQPEDFATYYCQQSRTFGQGTKVEIK	1.6 µg/mL and 1.5 µg/mL	0.66	1.01	0.21	0.71	1.15	0.36	0.17	1.07	0.46	0.43	2.18	0.94	0.57	0.31	0.6	1.53	0.46	0.53	0.13	Neutralization IC50, H6-HK97 [20]: 0.4 µg/mL; Neutralization IC50, H6-AB85 [21]: 0.24 µg/mL; Neutralization IC50, H1-TX91 [22]: 0.11 µg/mL; Neutralization IC50, H3-VC11 [23]: 0.85 µg/mL
Antibody 13 (antibody, V domains shown) VH: QVQLQQSGPGLVKPSQTLSLTCAISGDSVSSYNAVWNWIRQSPSRGLEWLGRTYYRSGWYNDYAESVKSRITINPDTSKNQFSLQLNSVTPEDTAVYYCARSGHITVFGVNVDAFDMWGQGTMVTVSS VL: DIQMTQSPSSLSASVGDRVTITCRTSQSLSSYDHWYQQKPGKAPKLLIYAASSRLSGVPSRFSGSGSGTDFTLTISSLQPEDFATYYCQQSRTFGQGTKVEIK	1.6 µg/mL and 1.4 µg/mL	0.77	1.86	0.17	0.96	1.23	0.29	0.28	1.19	0.43	0.5	2.62	2.45	0.56	0.47	0.57	2.18	0.44	0.41	0.12	Neutralization IC50, H6-HK97 [20]: 0.55 µg/mL; Neutralization IC50, H6-AB85 [21]: 0.29 µg/mL; Neutralization IC50, H1-TX91 [22]: 0.09 µg/mL; Neutralization IC50, H3-VC11 [23]: 1.03 µg/mL
